The record followed here is US20170016915A1, “SCREENING TARGETS AND COMPOSITIONS AND METHODS FOR TREATMENT OF CILIOPATHY DISORDERS” (Duke University, priority 2014, published 2017).

First the molecules themselves.
T1: BBS10 (UniProt Q8TAM1 1-723, limits assumed)
T1 construct: Tested in the same co-IP series as the Myc- or HA-tagged BBS proteins
T1 sequence (looked up): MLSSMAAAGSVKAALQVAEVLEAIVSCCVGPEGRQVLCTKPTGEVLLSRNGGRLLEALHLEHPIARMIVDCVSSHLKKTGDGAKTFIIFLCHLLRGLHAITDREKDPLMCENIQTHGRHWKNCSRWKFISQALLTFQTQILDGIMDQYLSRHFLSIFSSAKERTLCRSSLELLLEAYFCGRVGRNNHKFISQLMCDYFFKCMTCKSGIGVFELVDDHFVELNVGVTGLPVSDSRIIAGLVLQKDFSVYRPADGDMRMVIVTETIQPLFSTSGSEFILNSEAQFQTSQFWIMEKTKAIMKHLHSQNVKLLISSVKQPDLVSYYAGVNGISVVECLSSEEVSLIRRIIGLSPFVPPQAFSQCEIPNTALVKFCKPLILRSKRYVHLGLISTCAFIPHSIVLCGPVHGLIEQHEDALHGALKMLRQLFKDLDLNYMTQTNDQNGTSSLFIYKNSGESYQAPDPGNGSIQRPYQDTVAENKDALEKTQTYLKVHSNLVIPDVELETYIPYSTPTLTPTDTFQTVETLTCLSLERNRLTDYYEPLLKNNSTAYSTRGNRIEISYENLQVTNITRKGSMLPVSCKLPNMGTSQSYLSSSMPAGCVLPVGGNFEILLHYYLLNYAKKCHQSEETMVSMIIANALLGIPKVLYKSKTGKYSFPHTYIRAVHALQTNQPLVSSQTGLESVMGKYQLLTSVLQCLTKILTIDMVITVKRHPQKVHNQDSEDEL

B1: GFP-tagged regulatory proteasome non-ATPase subunit 13 (RPN13) (other, UniProt Q16186 1-407, looked up)
chain: MTTSGALFPSLVPGSRGASNKYLVEFRAGKMSLKGTTVTPDKRKGLVYIQQTDDSLIHFCWKDRTSGNVEDDLIIFPDDCEFKRVPQCPSGRVYVLKFKAGSKRLFFWMQEPKTDQDEEHCRKVNEYLNNPPMPGALGASGSSGHELSALGGEGGLQSLLGNMSHSQLMQLIGPAGLGGLGGLGALTGPGLASLLGSSGPPGSSSSSSSRSQSAAVTPSSTTSSTRATPAPSAPAAASATSPSPAPSSGNGASTAASPTQPIQLSDLQSILATMNVPAGPAGGQQVDLASVLTPEIMAPILANADVQERLLPYLPSGESLPQTADEIQNTLTSPQFQQALGMFSAALASGQLGPLMCQFGLPAEAVEAANKGDVEAFAKAMQNNAKPEQKEGDTKDKKDEEEDMSLD
notes: Transfected construct; not shown: GFP tag
B2: GFP-tagged regulatory proteasome non-ATPase subunit 10 (RPN10) (other, UniProt P55036 1-377, looked up)
chain: MVLESTMVCVDNSEYMRNGDFLPTRLQAQQDAVNIVCHSKTRSNPENNVGLITLANDCEVLTTLTPDTGRILSKLHTVQPKGKITFCTGIRVAHLALKHRQGKNHKMRIIAFVGSPVEDNEKDLVKLAKRLKKEKVNVDIINFGEEEVNTEKLTAFVNTLNGKDGTGSHLVTVPPGPSLADALISSPILAGEGGAMLGLGASDFEFGVDPSADPELALALRVSMEEQRQRQEEEARRAAAASAAEAGIATTGTEDSDDALLKMTISQQEFGRTGLPDLSSMTEEEQIAYAMQMSLQGAEFGQAESADIDASSAMDTSEPAKEEDDYDVMQDPEFLQSVLENLPGVDPNNEAIRNAMGSLASQATKDGKKDKKEEDKK
notes: Transfected expression construct; also called GFP-tagged RPN10; not shown: GFP tag
B3: BBS5 (other, UniProt Q8N3I7 1-341, looked up)
chain: MSVLDALWEDRDVRFDLSAQQMKTRPGEVLIDCLDSIEDTKGNNGDRGRLLVTNLRILWHSLALSRVNVSVGYNCILNITTRTANSKLRGQTEALYILTKCNSTRFEFIFTNLVPGSPRLFTSVMAVHRAYETSKMYRDFKLRSALIQNKQLRLLPQEHVYDKINGVWNLSSDQGNLGTFFITNVRIVWHANMNDSFNVSIPYLQIRSIKIRDSKFGLALVIESSQQSGGYVLGFKIDPVEKLQESVKEINSLHKVYSASPIFGVDYEMEEKPQPLEALTVEQIQDDVEIDSDGHTDAFVAYFADGNKQQDREPVFSEELGLAIEKLKDGFTLQGLWEVMS
notes: Tested in the same co-IP series as the Myc- or HA-tagged BBS proteins
B4: GFP-tagged PSMB1 (proteasome subunit beta type 1, subunit in the 20S particle) (other, UniProt P20618 1-241, looked up)
chain: MLSSTAMYSAPGRDLGMEPHRAAGPLQLRFSPYVFNGGTILAIAGEDFAIVASDTRLSEGFSIHTRDSPKCYKLTDKTVIGCSGFHGDCLTLTKIIEARLKMYKHSNNKAMTTGAIAAMLSTILYSRRFFPYYVYNIIGGLDEEGKGAVYSFDPVGSYQRDSFKAGGSASAMLQPLLDNQVGFKNMQNVEHVPLSLDRAMRLVKDVFISAAERDVYTGDALRICIVTKEGIREETVSLRKD
notes: as for B1

Where a SMILES comes first, the peptide text is derived from it. The star is where a group is joined. Cbz = O=C(OCc1ccccc1)*

Assay [1] concerns her4 expression (Notch target) in bbs4 morphant zebrafish embryos. Nature of the assay: Whole-mount RNA in situ hybridization of her4 in morphant zebrafish. It is filed as in vivo. Particulars: bbs4 morphants, coinjection, 4.5 dpf. As to the method:
Morpholinos against bbs1 ([NT] ID NO: 13), bbs4 ([NT] ID NO: 14), and ofd1 ([NT] ID NO: 15) were purchased from Gene Tools, LLC. Human RPN10, RPN13, and RPT6 mRNA were in vitro transcribed with a mMESSAGE mMACHINE SP6 Kit (Ambion). SFN was dissolved in DMSO (Sigma-Aldrich) at a stock concentration of 1 M and further diluted in water to 10 mM. The morpholino and mRNA or SFN were mixed, and a volume of 0.5 nl was microinjected. Zebrafish embryos were fixed overnight in 4% PFA at 4° C. Residual pigment was removed by bleaching with 3% H2O2/0.5% KOH.

Assay [2] concerns bbs4, bbs1 and ofd1 morphant zebrafish embryos. Nature of the assay: Convergent extension (CE) and somite defects in morphant zebrafish embryos, coinjection. The assay is classed as in vivo. The conditions noted are these: coinjection with bbs4 morpholino. Here is the method: Morpholinos against bbs1 ([NT] ID NO: 13), bbs4 ([NT] ID NO: 14), and ofd1 ([NT] ID NO: 15) were purchased from Gene Tools, LLC. Human RPN10, RPN13, and RPT6 mRNA were in vitro transcribed with a mMESSAGE mMACHINE SP6 Kit (Ambion). SFN was dissolved in DMSO (Sigma-Aldrich) at a stock concentration of 1 M and further diluted in water to 10 mM. The morpholino and mRNA or SFN were mixed, and a volume of 0.5 nl was microinjected.

The test system of assay [3] is NICD. Nature of the assay: Immunoblot of NICD in BBS4-overexpressing cells treated with proteasome inhibitors. It is filed as cell-based. The conditions noted are these: MG132 30 μM 5 hours, lactacystin 20 μM 5 hours. (In general: A western blot detects proteins with antibodies after separation by electrophoresis.)
Experimental: (§2) Transfected cells and mouse tissues were lysed in modified RIPA buffer [150 mM sodium chloride, 50 mM Tris-HCl, pH7.4, 1% nonidet P-40, 0.1% sodium deoxycholate, 1 mM EDTA] with 1× proteasome inhibitor (Roche) and centrifuged at 4° C. for 15 minutes. […] Total protein in each sample was separated by SDS-PAGE on 4% to 15% Mini-PROTEAN TGX Precast Gel (Bio-Rad) with a Spectra Multicolor Broad Range Protein Ladder (Fermentas) and transferred to an Immun-Blot PVDF Membrane (Bio-Rad). […] Densitometric analysis was performed with Image Lab (Bio-Rad), Quantity One (Bio-Rad), or ImageJ 1.44p (NIH) software.
(§3) Drug treatment was carried out at a final concentration of 10 μM SFN (Sigma-Aldrich) for 6 to 24 hours, 30 μm N-carbobenzoxyl- ? -leucinyl- ? -leucinyl- ? -norleucinal (MG132; Calbiochem) for 5 hours, 20 μM lactacystin (EMD Bioscience) for 5 hours, and 50 ng/ml TNF-α (Sigma-Aldrich) for 12 hours.
In assay [4] the test system is JAG1. Nature of the assay: Immunoblot of GFP-JAG1 in BBS4-overexpressing cells treated with proteasome inhibitor. It is filed as cell-based. Particulars: proteasome inhibitor 5 hours.
Experimental: as §2, §3
Assay [5] deals with T1, BBS10. Nature of the assay: co-immunoprecipitation, 1% Triton X-100. Here is the method:
(§1) First, an unbiased mass spectrometry screen was conducted to identify putative OFD1-interacting proteins. This experiment uncovered a spectrum of proteasomal subunits including regulatory proteasome ATPase subunit 6 (RPT6), a finding confirmed by semiendogenous coimmunoprecipitation (FIG. 4A). […] To test the physiological relevance of a BBS-proteasome interactome, it was determined that BBS1 and RPN10 interacted at endogenous levels in protein lysates isolated from C57BL/6 mouse testes (FIG. 4A). To probe the relevance of these interactions, the question was asked whether loss of OFD1 or BBS4 alters the composition of the proteasome with respect to its subunits. Using a stable cell line expressing tagged regulatory proteasome non-ATPase subunit 11 (RPN11) (37), OFD1 was suppressed, 26S proteasome complexes were purified, and a robust reduction was observed (60%±8%) of 26S-bound regulatory proteasome ATPase subunit 2 (RPT2) in OFD1-depleted cells in comparison with that in control, while total RPT2 protein abundance was not affected by OFD1 depletion (FIG. 4B).

Assay [6] addresses B2. Nature of the assay: co-immunoprecipitation, 1% Triton X-100. As to the method: as §1
The target in assay [7] is B1. The assay is described as follows: co-immunoprecipitation, 1% Triton X-100. As to the method: as §1
For assay [8], the target named is T2, GFP-tagged regulatory proteasome ATPase subunit 6 (RPT6) (UniProt P62195 1-406).
T2 construct: Transfected construct; not shown: GFP tag
The assay is described as follows: co-immunoprecipitation, 1% Triton X-100. Here is the method: as §1

In assay [9] the target is B3. Nature of the assay: co-immunoprecipitation, 1% Triton X-100. As to the method:
as §1

T2 sequence (P62195 whole entry): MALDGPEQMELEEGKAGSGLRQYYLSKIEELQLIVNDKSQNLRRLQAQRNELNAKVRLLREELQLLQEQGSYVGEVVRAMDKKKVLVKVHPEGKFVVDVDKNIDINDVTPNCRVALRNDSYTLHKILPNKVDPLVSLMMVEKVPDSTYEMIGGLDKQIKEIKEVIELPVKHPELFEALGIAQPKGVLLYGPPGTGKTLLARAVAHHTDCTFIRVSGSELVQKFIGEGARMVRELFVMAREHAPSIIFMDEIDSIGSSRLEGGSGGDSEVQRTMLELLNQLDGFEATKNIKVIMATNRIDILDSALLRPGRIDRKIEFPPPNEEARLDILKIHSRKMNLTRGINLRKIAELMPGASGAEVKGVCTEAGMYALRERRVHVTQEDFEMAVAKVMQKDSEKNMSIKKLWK

Turning to `CC1(O)CCOC(=O)C1` (racemic) [MVA, (±)-β-hydroxy-β-methyl-δ-valerolactone], the “ectopic expression of her4 in neural structures” value in assay [1] is “reduced”. Further, the “bbs4 morphant zebrafish with CE defects” value in assay [2] (9±1 ss, 47.8% without MVA) came to 11.4%. The “bbs4 morphants with CE and somitic defects” value in assay [2] (blind scoring at 9±1 ss) is “rescues”.

Take `CC(C)C[C@@H](C=O)NC(=O)[C@H](CC(C)C)NC(=O)[C@H](CC(C)C)NC(=O)OCc1ccccc1` [MG132] (Cbz-Leu-Leu-Leu-aldehyde): in assay [3], the “NICD protein levels, of basal levels” value stood at 93%. Also, the “JAG1 levels, of basal levels” value in assay [4] is reported as 99%±38%.

Regarding `CC(=O)N[C@@H](CSC(=O)[C@]1([C@@H](O)C(C)C)NC(=O)[C@H](C)[C@@H]1O)C(=O)O` [lactacystin], the “NICD protein levels, of basal levels” value in assay [3] amounted to 138%.

Turning to B1, the binding result in assay [5] is on record as “no binding”.

Regarding B2, the binding result in assay [5] is “no binding”.

Consider B3, for which the binding result in assay [6], in [7] and in assay [8] was “no binding” each time.

As for B4, the binding result in [5] and in assay [9] was “no binding” each time.
